Assay results reported in patent US20100280227A1.

What was measured:
Assay in all cases: shotgun alanine scan of phage-displayed BR3; F against wild type
[1] = molecular target: human BR3 displayed on phage, mutated at A22 in the alanine scan (human) (UniProt Q96RJ3)
[2] = molecular target: human BR3 displayed on phage, R30 alanine-scan mutant (human) (UniProt Q96RJ3)
[3] = molecular target: human BR3 displayed on phage, G36 alanine-scan mutant (human) (UniProt Q96RJ3)

B1: murine monoclonal antibody 11G9 (antibody, V domains shown)
VH: DVQLQESGPSLVKPSQTLSLTCSVTGDSITSGYWNWIRKFPGNKLEYMGYISYSGSTYYNPSLKSRISITRDTSKNQFYLQLLSVTTEDTATYYCAGLDGLYWYFDVWGAGTLVTVSS
VL: DIVMTQTPLSLPVSLGDQASISCRSSQSLVHSNGNTYLHWYLQKPGQSPKLLIYKVSNRFSGVPDRFSGSGSGTDFTLKISRVEAEDLGVYFCSQSTHVPPFTFGSGT
F value [1]: 45

B2: V3-1m (antibody, mouse IgG2a, V domains shown)
VH: EVQLVESGGGLVQPGGSLRLSCAASGFTISSNSIHWVRQAPGKGLEWVAWITPSDGNTDYADSVKGRFTISADTSKNTAYLQMNSLRAEDTAVYYCARRVCYNRLGVCAGGMDYWGQGTLVTVSS
VL: DIQMTQSPSSLSASVGDRVTITCRASQDVSTAVAWYQQKPGKAPKLLIYSASFLYSGVPSRFSGSGSGTDFTLTISSLQPEDFATYYCQQSRITPPTFGQGTKVEIKR
F value [2]: 20

B3: murine monoclonal antibody 2.1 (antibody, V domains shown)
VH: EVQLQESGPSLVKPSQTLSLTCSVTGDSITRGYWNWIRKFPGNKLEFMGYINYSGTTYYNPSLKSRISITRDTSKNQYYLQLNSVTTEDTATYYCATPHTYGAMDYWGQGTTLTVSA
VL: DIVLTQSPVSLAVSLGQRATISCRASESVDDYGISFMHWYQQKPGQPPKLLIYRASDLESGIPARFSGSGSGTDFTLTINPVETDDVAIYYCQQTSKDPWTFGGGT
F value [3]: 14
